Residue numbers refer to the chain shown, from its start.
T1: miR2-FL-WT-T7 (mouse iRhom2 full length wild type C-terminally tagged with 3 consecutive copies of the T7 … (mouse, UniProt Q80WQ6 1-827))
T1 construct: also called mouse iRhom2 variant expressed by MEF-DKO-miR2-FL-WT-T7 cells
T1 sequence: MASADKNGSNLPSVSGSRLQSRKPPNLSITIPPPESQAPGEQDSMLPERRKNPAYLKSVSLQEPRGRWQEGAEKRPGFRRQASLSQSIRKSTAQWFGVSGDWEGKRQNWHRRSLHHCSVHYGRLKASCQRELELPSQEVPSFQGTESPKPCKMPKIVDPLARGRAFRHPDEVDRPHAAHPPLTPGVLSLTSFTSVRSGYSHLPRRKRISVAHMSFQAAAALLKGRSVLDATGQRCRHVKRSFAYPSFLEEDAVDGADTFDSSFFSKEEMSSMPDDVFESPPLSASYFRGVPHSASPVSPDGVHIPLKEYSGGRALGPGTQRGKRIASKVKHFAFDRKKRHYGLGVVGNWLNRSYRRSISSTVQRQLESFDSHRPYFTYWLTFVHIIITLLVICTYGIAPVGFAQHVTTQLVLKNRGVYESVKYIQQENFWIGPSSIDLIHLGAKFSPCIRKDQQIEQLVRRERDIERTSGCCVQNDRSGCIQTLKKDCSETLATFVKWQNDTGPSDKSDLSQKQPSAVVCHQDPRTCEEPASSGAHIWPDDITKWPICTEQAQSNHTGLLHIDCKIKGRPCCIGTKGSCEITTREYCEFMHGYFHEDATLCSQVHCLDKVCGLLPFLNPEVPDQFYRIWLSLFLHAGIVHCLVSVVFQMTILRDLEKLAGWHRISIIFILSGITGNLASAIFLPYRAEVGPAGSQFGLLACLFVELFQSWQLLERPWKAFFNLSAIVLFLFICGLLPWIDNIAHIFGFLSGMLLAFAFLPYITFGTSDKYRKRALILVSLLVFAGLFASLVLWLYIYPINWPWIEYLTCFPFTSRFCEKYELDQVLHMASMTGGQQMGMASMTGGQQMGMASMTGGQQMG

B1: antibody 50 (antibody, V domains shown)
VH: QVQLQQSGAELVRPGASVKVSCKASGYAFSNYLIEWVKQRPGQGLEWIGVINPGSGFTKYNEKFKGKATLTADKSSSTAYMQLSSLTSEDSAVYFCARGLYRAMDYWGQGTSVTVSS
VL: DIQMTQSPASQSASLGESVTITCLASQTIGTWLAWYQQKPGKSPQLLIYAAASLADGVPSRFSGGGSGTKFSFKISSLQAEDFVNYYCQQIYSTPYTFGGGTKLEIK
notes: Mouse IgG, kappa light chain; also called clone #50; purified antibody 50
B2: antibody 16 (antibody, V domains shown)
VH: QVTLKESGPGILQPSQTLSLTCSFSGFSLSTFALGVGWIRQPSGRGLEWLAHIWWDDDKYYNPALKSRLTISKDTSKNHVFLKIANVDTADTATYYCARITTYYYGMDYWGQGTSVTVSS
VL: DIVLSQSPATLSVTPGDSVSLFCRASQSIGNHLHWYQQESHASPRLLIKYASQSISGIPSRFSGSGSGTDFTLSINSVETEDFGMYFCQQSYNWPLTFGAGTKLELK
notes: Mouse IgG, kappa light chain; also called clone #16; m16
B3: antibody 3 (antibody, V domains shown)
VH: QVTLKESGPGILQPSQTLSLTCSFSGFSLTTFAMGIGWVRQPSGKGLEWLAHIWWDGEKYNNPVLKSRLTISKDTSKNQVFLRIANVDTPDTATYYCARISSIYYIIDNWGQGTSVTVSS
VL: B2 VL with S5T, D17H, F22S, G30S, H32N, Q38K, E39K, A42E, A51V
notes: Mouse IgG, kappa light chain; also called clone #3; purified antibody 3
B4: antibody 43 (antibody, V domains shown)
VH: QVALKESGPGILQPSQTLSLTCSFSGFSLSTFGMGVGWIRQSSGKGLEWLANIWWDDDKYYNPALKSRLTISKDASKNQAFLKIANVDTADTATYYCARIGNYGSNYWYFDVWGTGTTVTVSS
VL: QIVLTQSPAIMSASPGERVTMTCSANSRISYMYWYQQKPGSSPRLLIYDTSNLASGVPVRFSGSGSGTSYSLTISRMEAEDAATYNCQQWSSYPLTFGAGTKLELK
notes: Mouse IgG, kappa light chain; also called clone #43
B5: antibody 5 (antibody, V domains shown)
VH: B4 VH with A3T, S42P, N52H, D58E, P63S, D74A, A75T, G101S, D111N
VL: QVVLTQSPALMSASPGEKVTMTCSAGSSVSCMYWYQQKPGSSPRVLIYDTSNLASGVPARFTGSGSGTSYSLTISRMEAEDAASYYCQQWNSYPLTFGAGTKLELK
notes: Mouse IgG, kappa light chain; also called clone #5; purified antibody 5
B6: antibody 44 (antibody, V domains shown)
VH: B4 VH with A3T, S42P, G44E, N52H, A75T, A80I, A85T, D91E, A98S
VL: QIVLTQSPAVMSASPGEKVTMTCTASSSVYYMYWYQQTPGSSPRLLIYDTSNLASGVPVRFSGSGSGTSYSLTISRMEAEDAATYYCQQWNTYPLTFGAGTKLELK
notes: Mouse IgG, kappa light chain; also called clone #44; m44
B7: antibody 42 (antibody, V domains shown)
VH: B4 VH with A3T, F24L, M34R, S42P, N52H, D58E, A75T, A80V, K83R, G101Q
VL: B4 VL with Q1L, R18K, S24G, N26T, Y33F, L45V, M77V, A82V, N86Y, S91N
notes: Mouse IgG, kappa light chain; also called clone #42; m42
B8: antibody 22 (antibody, V domains shown)
VH: B4 VH with A3T, S42P, N52H, D58E, P63S, D74A, A75T, A80V, G101S, D111N
VL: B5 VL with C31Y, S84T
notes: Mouse IgG, kappa light chain; also called clone #22; m22
B9: antibody 34 (antibody, V domains shown)
VH: QVTLKESGPGILQPSQTLSLTCSFSGFSLSTFSLGVGWIRQSSGKGLEWLAHIWWDDEKYYNPALKSRLTISKDTSKNQVFLKIANVDAADTATYYCARAYYSKSYYALDYWGQGTSVTVSS
VL: DIQMTQSPSSLSASLGERVSLTCRASQEISGYLSWLQQKPDGTIKRLIYAASTLDSGVPKRFSGSRSGSDYSLAISSLESEDFADYYCLQYANFPFTFGSGTKLEIK
notes: Mouse IgG, kappa light chain; also called clone #34; m34

These binders were tested against T1, miR2-FL-WT-T7 (mouse iRhom2 full length …) (assay: FACS on cells of the row mouse iR2 wild type, vs human iR2 wild type = 100%).
Source text: In brief, immortalized MEF-DKO-hiR2-FL-WT-T7 cells, MEF-DKO-miR2-FL-WT-T7 cells and MEF-DKO-hiR2-FL-R441K-T7, MEF-DKO-hiR2-FL-K443R-T7, MEF-DKO-hiR2-FL-V459I-T7, MEF-DKO-hiR2-FL-G481Q-T7, MEF-DKO-hiR2-FL-L488R-T7, MEF-DKO-hiR2-FL-L493I-T7, MEF-DKO-hiR2-FL-D496T-T7, MEF-DKO-hiR2-FL-H505R-T7, MEF-DKO-hiR2-FL-Q512L-T7, MEF-DKO-hiR2-FL-R513K-T7, MEF-DKO-hiR2-FL-D528N-T7, MEF-DKO-hiR2-FL-P533-T7, MEF-DKO-hiR2-FL-M534S-T7, MEF-DKO-hiR2-FL-G540S-T7, MEF-DKO-hiR2-FL-R543Q-T7, MEF-DKO-hiR2-FL-T544P-T7, MEF-DKO-hiR2-FL-G546A-T7, MEF-DKO-hiR2-FL-A547V-T7, MEF-DKO-hiR2-FL-R582Q-T7, MEF-DKO-hiR2-FL-F588L-T7, MEF-DKO-hiR2-FL-M591I-T7, MEF-DKO-hiR2-FL-E594K-T7, MEF-DKO-hiR2-FL-E626D-T7, MEF-DKO-hiR2-FL-L657I-T7, and MEF-DKO-hiR2-FL-H835Y-T7 cells were harvested with 10 mM EDTA in PBS, washed and resuspended in FACS buffer (PBS, 3% FBS, 0.05% sodium azide), and seeded in Nunc U-bottom 96-well plates (Thermo Fisher Scientific, USA) at approximately 3×10⁵ cells per well. To pellet cells and remove supernatants, the plates were centrifuged at 1,500 rpm and 4° C. for 3 minutes. For primary staining, cells were resuspended in 100 μl per well of either FACS buffer alone (controls) or the purified antibodies 3, 5, 16, 22, 34, 42, 43, 44, 48, and 50 of the present disclosure at 3 μg/ml FACS buffer and incubated on ice for 1 hour. Afterwards, plates were centrifuged at 1,500 rpm and 4° C. for 3 minutes and washed twice with 200 μl per well of FACS buffer. For secondary staining, cells were spun down and resuspended in 100 μl per well of PE-conjugated goat anti-mouse IgG F(ab′)2 detection fragment (Dianova, Germany) diluted 1:100 in FACS buffer. Protected from light, the cell suspensions were incubated on ice for 1 hour. Plates were then centrifuged at 1,500 rpm and 4° C. for 3 minutes and washed three times with 200 μl per well of FACS buffer. Finally, cells were resuspended in 150 μl per well of FACS buffer and analyzed using a BD Accuri™ C6 Plus flow cytometer (Becton Dickinson, Germany).

| Binder | grade of loss of binding vs wild type |
| --- | --- |
| B1 | 3 grade (3 => 95% loss of binding vs wild type) |
| B2 | 3 grade (3 => 95% loss of binding vs wild type) |
| B3 | 3 grade (3 => 95% loss of binding vs wild type) |
| B4 | 3 grade (3 => 95% loss of binding vs wild type) |
| B5 | 3 grade (3 => 95% loss of binding vs wild type) |
| B6 | 3 grade (3 => 95% loss of binding vs wild type) |
| B7 | 3 grade (3 => 95% loss of binding vs wild type) |
| B8 | 3 grade (3 => 95% loss of binding vs wild type) |
| B9 | 3 grade (3 => 95% loss of binding vs wild type) |

Each binder was assayed against T1, miR2-FL-WT-T7 (mouse iRhom2 full length …) (assay: FACS on cells of the row mouse iR2 wild type).

| Binder | binding result |
| --- | --- |
| B1 | no binding (tested: 3 µg/ml) |
| B2 | no binding (tested: 3 µg/ml) |
| B4 | no binding (tested: 3 µg/ml) |
| B5 | no binding (tested: 3 µg/ml) |
| B6 | no binding (tested: 3 µg/ml) |
| B7 | no binding (tested: 3 µg/ml) |
| B8 | no binding (tested: 3 µg/ml) |
| B9 | no binding (tested: 3 µg/ml) |
